Test results reported in PMC12084805.
Read-outs that look alike come from different tables or passages of the source.

T1: POT-2 (Caenorhabditis elegans, UniProt O45595 1-251)
T1 sequence: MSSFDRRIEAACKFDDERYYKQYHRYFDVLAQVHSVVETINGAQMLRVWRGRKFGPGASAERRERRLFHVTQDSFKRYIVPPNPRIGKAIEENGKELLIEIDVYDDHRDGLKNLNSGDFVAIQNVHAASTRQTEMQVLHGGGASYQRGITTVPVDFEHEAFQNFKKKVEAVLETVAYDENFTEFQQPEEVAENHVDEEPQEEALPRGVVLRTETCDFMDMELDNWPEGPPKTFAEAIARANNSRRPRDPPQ

T2: POT-3 (Caenorhabditis elegans, UniProt G5EFG7 1-215)
T2 sequence: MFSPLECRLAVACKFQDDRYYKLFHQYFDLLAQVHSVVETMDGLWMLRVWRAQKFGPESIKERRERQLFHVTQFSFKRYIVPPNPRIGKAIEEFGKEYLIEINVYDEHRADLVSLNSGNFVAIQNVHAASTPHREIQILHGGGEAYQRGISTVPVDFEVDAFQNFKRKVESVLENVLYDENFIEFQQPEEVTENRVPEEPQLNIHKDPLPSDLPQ


Experiments:
Assay in all cases: EMSA
[1] = biological target: T1, POT-2
[2] = biological target: T2, POT-3
[3] = biological target: T1, POT-2; remark: listed apart in the source
[4] = biological target: T2, POT-3; remark: listed apart in the source

Row | Binder | binding result [1] | binding result [2] | binding result [3] | binding result [4]
1 | TTAGGCTTAGGC (ssDNA) [ss (TTAGGC)2] | binds | binds |  | 
2 | TTAGGTTTAGGT (ssDNA) [ss (TTAGGT)2] |  |  | no binding | no binding
3 | TTAGACTTAGAC (ssDNA) [ss (TTAGAC)2] |  |  | no binding | no binding
